Data on 1 substance can be found in article PMC3045599.

By stoichiometry N is commonly meant the number of molecules, sites or subunits per partner or assembly.

This test concerns the target NrdA-a/NrdA-b heterodimer of phage Aeh1, wild type (phage Aeh1). In words: GEMMA.

The substance “NrdA-a/NrdA-b heterodimer of phage Aeh1, wild type (complex)” displayed a stoichiometry N of 2.
